# Legend:
# HeLa Kyoto [1] = test: solubility in G1/S (NP-40 vs SDS abundance) (log2 ratio); higher = more soluble; conditions: cell cycle stage: G1/S
# HeLa Kyoto [2] = test: thermal stability score vs G1/S (z-score of summed log2 fold changes over temperatures); higher = more thermally stable than in G1/S
# HeLa Kyoto [3] = test: solubility change mitosis vs G1/S (difference of NP-40 vs SDS log2 ratios) (log2 ratio difference); higher = more soluble in mitosis
# HeLa Kyoto [4] = test: melting temperature (median over replicates), in situ; higher = more thermally stable
# [5] = cell cycle stage: early G1 (4.5 h after nocodazole release)
# 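Throughout, for melting temperature (median over replicates), in situ: HeLa Kyoto cells synchronized by double thymidine or nocodazole block, proteins quantified by TMT10plex mass spectrometry, three independent biological replicates.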
# 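Throughout, for solubility change mitosis vs G1/S (difference of NP-40 vs SDS log2 ratios): synchronized HeLa Kyoto cells (double thymidine block for G1/S, nocodazole release for mitosis), protein amounts in NP-40 versus SDS lysates quantified by mass spectrometry, three biological replicates.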
# 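Throughout, for solubility in G1/S (NP-40 vs SDS abundance): HeLa Kyoto cells arrested at G1/S by double thymidine block, proteins quantified by TMT10plex mass spectrometry in mild NP-40 versus SDS extracts, three biological replicates.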
# 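Throughout, for thermal stability score vs G1/S (z-score of summed log2 fold changes over temperatures): synchronized HeLa Kyoto cells, proteins quantified by TMT10plex mass spectrometry, three biological replicates, mitosis taken 0.5 h after nocodazole release, G1/S directly after double thymidine block.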
# Chain of TGOLN2 (chain, as listed by the source): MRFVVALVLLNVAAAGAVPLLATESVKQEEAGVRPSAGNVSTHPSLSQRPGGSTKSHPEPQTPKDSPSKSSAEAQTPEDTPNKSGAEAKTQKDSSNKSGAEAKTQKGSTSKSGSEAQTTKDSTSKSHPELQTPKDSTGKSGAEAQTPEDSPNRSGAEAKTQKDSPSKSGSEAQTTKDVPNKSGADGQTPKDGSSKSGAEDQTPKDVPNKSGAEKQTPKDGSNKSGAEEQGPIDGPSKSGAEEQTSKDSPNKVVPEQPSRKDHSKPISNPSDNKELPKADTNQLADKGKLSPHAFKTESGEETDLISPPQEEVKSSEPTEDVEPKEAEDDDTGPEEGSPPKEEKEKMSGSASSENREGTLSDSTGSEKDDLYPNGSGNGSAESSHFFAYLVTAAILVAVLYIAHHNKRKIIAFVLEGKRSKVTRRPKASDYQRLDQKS
# Chain of ZNF593 (chain, as listed by the source): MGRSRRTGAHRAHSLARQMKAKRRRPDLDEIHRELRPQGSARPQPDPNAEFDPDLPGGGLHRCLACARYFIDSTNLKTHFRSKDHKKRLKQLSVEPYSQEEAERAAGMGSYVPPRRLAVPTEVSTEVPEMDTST
# Chain of UNC13B (chain, as listed by the source): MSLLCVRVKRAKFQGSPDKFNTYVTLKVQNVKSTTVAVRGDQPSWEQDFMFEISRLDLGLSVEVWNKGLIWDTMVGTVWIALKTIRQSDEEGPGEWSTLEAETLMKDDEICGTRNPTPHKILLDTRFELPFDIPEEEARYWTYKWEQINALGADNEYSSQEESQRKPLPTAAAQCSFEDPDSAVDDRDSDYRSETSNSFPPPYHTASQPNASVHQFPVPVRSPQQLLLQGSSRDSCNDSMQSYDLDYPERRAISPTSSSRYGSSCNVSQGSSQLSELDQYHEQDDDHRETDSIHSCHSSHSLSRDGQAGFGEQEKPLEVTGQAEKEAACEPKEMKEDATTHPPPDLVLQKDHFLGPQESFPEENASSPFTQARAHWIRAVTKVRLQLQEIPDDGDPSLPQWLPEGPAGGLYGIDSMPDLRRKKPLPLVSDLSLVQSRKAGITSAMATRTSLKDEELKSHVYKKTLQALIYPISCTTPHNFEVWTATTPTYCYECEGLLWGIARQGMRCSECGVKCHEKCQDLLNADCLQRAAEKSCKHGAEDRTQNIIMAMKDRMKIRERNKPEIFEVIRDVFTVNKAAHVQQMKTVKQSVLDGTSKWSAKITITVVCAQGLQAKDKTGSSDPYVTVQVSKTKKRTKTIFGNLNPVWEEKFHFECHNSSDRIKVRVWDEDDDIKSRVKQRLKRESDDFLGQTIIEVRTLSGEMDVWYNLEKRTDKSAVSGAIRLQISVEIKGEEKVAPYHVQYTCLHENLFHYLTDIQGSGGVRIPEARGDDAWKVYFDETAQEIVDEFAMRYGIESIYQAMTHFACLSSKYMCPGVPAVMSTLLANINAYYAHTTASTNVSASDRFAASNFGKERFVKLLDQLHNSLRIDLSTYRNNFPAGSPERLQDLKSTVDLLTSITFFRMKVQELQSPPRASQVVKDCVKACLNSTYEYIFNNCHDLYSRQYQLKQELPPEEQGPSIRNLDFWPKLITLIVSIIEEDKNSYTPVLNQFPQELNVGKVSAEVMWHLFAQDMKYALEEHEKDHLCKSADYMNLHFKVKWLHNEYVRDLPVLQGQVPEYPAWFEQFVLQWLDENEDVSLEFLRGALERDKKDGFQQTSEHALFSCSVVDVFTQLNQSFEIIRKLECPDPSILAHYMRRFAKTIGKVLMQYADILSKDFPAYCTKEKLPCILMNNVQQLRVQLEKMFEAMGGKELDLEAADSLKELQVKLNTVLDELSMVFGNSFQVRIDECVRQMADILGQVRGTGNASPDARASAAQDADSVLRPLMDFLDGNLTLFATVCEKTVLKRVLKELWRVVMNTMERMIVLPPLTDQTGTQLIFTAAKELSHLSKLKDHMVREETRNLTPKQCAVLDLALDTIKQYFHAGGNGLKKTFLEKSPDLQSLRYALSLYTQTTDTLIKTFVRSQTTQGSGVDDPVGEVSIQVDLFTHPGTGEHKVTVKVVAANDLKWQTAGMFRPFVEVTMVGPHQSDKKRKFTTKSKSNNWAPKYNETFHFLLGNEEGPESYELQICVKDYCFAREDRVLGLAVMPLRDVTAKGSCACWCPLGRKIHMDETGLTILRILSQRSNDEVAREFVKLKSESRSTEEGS
# Chain of WNK2 (chain, as listed by the source): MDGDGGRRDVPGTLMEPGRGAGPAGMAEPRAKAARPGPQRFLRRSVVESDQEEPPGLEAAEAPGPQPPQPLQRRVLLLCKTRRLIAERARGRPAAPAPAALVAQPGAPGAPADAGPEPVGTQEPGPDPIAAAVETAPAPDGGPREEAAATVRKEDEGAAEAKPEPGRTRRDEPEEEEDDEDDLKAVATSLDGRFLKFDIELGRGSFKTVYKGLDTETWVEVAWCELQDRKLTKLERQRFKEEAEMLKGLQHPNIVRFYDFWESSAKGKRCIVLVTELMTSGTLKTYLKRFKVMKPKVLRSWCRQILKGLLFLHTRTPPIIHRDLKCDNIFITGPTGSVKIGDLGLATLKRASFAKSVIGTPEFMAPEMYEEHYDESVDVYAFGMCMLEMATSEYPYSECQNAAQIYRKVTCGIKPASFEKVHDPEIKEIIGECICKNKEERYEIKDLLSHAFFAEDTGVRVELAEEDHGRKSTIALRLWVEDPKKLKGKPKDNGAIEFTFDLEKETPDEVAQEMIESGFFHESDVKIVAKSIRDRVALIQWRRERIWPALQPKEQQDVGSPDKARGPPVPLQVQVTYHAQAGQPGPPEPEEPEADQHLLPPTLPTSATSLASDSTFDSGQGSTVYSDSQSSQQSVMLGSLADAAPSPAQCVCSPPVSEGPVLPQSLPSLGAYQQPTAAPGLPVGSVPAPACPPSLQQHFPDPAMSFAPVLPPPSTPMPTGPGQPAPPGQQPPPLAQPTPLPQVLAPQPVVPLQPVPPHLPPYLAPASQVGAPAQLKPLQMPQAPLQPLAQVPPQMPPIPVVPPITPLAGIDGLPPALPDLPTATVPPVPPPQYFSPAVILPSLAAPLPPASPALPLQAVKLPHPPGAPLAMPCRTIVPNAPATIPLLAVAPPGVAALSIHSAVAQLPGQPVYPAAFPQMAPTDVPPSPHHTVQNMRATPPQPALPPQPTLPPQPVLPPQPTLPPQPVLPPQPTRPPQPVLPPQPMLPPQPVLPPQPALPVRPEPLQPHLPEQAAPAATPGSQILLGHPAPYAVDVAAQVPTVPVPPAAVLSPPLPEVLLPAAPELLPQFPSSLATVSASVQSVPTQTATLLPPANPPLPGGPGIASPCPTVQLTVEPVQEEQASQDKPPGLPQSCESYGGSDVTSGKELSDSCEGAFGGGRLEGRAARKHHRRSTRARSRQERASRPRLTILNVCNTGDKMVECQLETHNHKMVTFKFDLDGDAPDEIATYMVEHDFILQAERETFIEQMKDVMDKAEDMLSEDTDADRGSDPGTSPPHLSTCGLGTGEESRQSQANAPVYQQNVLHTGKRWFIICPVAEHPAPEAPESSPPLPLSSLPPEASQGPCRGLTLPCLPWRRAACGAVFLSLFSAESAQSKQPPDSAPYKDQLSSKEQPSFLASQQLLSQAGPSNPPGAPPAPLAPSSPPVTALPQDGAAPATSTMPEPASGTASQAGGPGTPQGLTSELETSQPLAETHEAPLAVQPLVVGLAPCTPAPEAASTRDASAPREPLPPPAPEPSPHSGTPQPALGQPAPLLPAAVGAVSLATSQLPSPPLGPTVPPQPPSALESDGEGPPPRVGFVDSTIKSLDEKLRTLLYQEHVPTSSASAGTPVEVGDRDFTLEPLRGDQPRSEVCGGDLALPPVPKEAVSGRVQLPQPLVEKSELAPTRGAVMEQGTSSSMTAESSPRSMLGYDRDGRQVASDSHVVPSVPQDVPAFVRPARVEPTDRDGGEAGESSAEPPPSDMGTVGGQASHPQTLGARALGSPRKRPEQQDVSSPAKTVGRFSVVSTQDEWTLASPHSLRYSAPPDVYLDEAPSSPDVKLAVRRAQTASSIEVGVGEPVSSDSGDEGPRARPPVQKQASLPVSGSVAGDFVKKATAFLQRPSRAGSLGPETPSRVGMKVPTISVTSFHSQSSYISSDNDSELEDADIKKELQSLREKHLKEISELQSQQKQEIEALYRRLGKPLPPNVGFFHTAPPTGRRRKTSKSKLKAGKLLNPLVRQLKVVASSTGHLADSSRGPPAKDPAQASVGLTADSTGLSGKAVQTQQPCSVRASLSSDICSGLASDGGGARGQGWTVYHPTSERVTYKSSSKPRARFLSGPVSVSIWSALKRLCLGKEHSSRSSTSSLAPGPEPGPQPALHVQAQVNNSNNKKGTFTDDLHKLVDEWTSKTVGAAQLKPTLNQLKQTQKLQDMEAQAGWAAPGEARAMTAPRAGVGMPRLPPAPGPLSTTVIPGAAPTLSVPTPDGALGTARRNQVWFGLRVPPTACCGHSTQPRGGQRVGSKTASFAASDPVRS
# Chain of NFYA (chain, as listed by the source): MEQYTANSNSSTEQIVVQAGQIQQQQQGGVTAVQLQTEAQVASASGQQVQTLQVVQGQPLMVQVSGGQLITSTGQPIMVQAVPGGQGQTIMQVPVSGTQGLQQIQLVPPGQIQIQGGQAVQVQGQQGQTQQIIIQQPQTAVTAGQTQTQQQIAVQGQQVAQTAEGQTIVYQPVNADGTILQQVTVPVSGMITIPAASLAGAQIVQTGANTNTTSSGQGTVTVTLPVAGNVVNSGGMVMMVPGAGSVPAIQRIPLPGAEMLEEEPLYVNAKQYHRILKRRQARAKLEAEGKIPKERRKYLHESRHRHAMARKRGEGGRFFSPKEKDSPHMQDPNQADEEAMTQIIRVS
Substance,solubility in G1/S (log2) (HeLa Kyoto [1]),thermal stability score (HeLa Kyoto [2]; [5]),thermal stability score (HeLa Kyoto [2]; cell cycle stage: mitosis),solubility change mitosis (log2) (HeLa Kyoto [3]),melting temperature (HeLa Kyoto [4]; cell cycle stage: G1/S),melting temperature (HeLa Kyoto [4]; cell cycle stage: mitosis)
ABCA2,0.0925,0.174,-0.253,-0.105,–,–
APOBEC3B,-0.745,0.584,1.24,0.177,–,–
CELSR1,-0.413,-1.99,-1.59,-0.0398,–,–
EML1,-0.0717,0.361,0.0361,-0.126,–,–
KIAA0430,-0.0573,-0.446,-0.799,0.0372,–,–
MSTASSSSSSSSSQTPHPPSQRMRRSAAGSPPAVAAAGSGNGAGGGGGVGCAPAAGAGRLLQPIRATVPYQLLRGSQHSPTRPPVAAAAASLGSLPGPGAARGPSPSSPTPPAAAAPAEQAPRAKGRPRRSPESHRRSSSPERRSPGSPVCRADKAKSQQVRTSSTIRRTSSLDTITGPYLTGQWPRDPHVHYPSCMKDKATQTPSCWAEEGAEKRSHQRSASWGSADQLKEQIAKLRQQLQRSKQSSRHSKEKDRQSPLHGNHITISHTQATGSRSVPMPLSNISVPKSSVSRVPCNVEGISPELEKVFIKENNGKEEVSKPLDIPDGRRAPLPAHYRSSSTRSIDTQTPSVQERSSSCSSHSPCVSPFCPPESQDGSPCSTEDLLYDRDKDSGSSSPLPKYASSPKPNNSYMFKREPPEGCERVKVFEEMASRQPISAPLFSCPDKNKVNFIPTGSAFCPVKLLGPLLPASDLMLKNSPNSGQSSALATLTVEQLSSRVSFTSLSDDTSTAGSMEASVQQPSQQQQLLQELQGEDHISAQNYVII [GLCCI1],0.4,–,–,-0.0403,53.7 °C,54.4 °C
MSVFGKLFGAGGGKAGKGGPTPQEAIQRLRDTEEMLSKKQEFLEKKIEQELTAAKKHGTKNKRAALQALKRKKRYEKQLAQIDGTLSTIEFQREALENANTNTEVLKNMGYAAKAMKAAHDNMDIDKVDELMQDIADQQELAEEISTAISKPVGFGEEFDEDELMAELEELEQEELDKNLLEISGPETVPLPNVPSIALPSKPAKKKEEEDDDMKELENWAGSM [CHMP4B],0.507,–,–,0.775,55 °C,52.5 °C
MTSPEIASLSWGQMKVKGSNTTYKDCKVWPGGSRTWDWRETGTEHSPGVQPADVKEVVEKGVQTLVIGRGMSEALKVPSSTVEYLKKHGIDVRVLQTEQAVKEYNALVAQGVRVGGVFHSTC [AAMDC],0.355,–,–,0.0391,53.4 °C,52.5 °C
MTTAARPTFEPARGGRGKGEGDLSQLSKQYSSRDLPSHTKIKYRQTTQDAPEEVRNRDFRRELEERERAAAREKNRDRPTREHTTSSSVSKKPRLDQIPAANLDADDPLTDEEDEDFEEESDDDDTAALLAELEKIKKERAEEQARKEQEQKAEEERIRMENILSGNPLLNLTGPSQPQANFKVKRRWDDDVVFKNCAKGVDDQKKDKRFVNDTLRSEFHKKFMEKYIK [CWC15],0.0823,–,–,0.681,55.4 °C,55.1 °C
MWPPCGTLRTLALARSRGARACSGDGGVSYTQGQSPEPRTREYFYYVDHQGQLFLDDSKMKNFITCFKDPQFLVTFFSRLRPNRSGRYEAAFPFLSPCGRERNFLRCEDRPVVFTHLLTADHGPPRLSYCGGGEALAVPFEPARLLPLAANGRLYHPAPERAGGVGLVRSALAFELSACFEYGPGAPALPSHVRWQGRRLALTMDLAPLLLAARSP [C8ORF82],0.265,–,–,0.0375,52.4 °C,54.3 °C
MYQDYPGNFDTSSRGSSGSPAHAESYSSGGGGQQKFRVDMPGSGSAFIPTINAITTSQDLQWMVQPTVITSMSNPYPRSHPYSPLPGLASVPGHMALPRPGVIKTIGTTVGRRRRDEQLSPEEEEKRRIRRERNKLAAAKCRNRRRELTEKLQAETEELEEEKSGLQKEIAELQKEKEKLEFMLVAHGPVCKISPEERRSPPAPGLQPMRSGGGSVGAVVVKQEPLEEDSPSSSSAGLDKAQRSVIKPISIAGGFYGEEPLHTPIVVTSTPAVTPGTSNLVFTYPSVLEQESPASPSESCSKAHRRSSSSGDQSSDSLNSPTLLAL [FOSL2],0.191,–,–,0.106,53.9 °C,55.1 °C
NBEAL2,-0.103,–,–,-0.0719,52 °C,–
NFYA,-0.0285,–,–,-0.0439,58 °C,58.1 °C
RPL22L1,-0.564,–,–,0.209,53.8 °C,52 °C
SRCAP,-0.24,–,–,0.0318,48.8 °C,50.3 °C
TGOLN2,-0.315,–,–,0.881,59.5 °C,53.9 °C
TOPBP1,-0.153,–,–,-0.0346,46.7 °C,49.1 °C
UNC13B,-0.113,–,–,-0.114,50.3 °C,49.4 °C
WNK2,0.2,–,–,-0.0197,–,52.6 °C
ZNF593,-0.278,–,–,1.09,57.9 °C,51.7 °C

# — the supplement of paper PMC5998384
